T1: AlpZ (Streptomyces ambofaciens, UniProt Q6VMG9 1-237)
T1 sequence: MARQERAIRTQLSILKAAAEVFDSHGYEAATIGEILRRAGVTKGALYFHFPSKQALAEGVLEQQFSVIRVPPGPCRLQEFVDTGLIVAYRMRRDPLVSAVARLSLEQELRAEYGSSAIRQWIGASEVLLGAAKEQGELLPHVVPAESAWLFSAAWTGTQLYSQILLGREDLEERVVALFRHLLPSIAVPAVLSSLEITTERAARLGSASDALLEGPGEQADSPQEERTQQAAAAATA

B1: nanoAREV dsoverhang (dsDNA)
DNA 1: CTCACATTGACAAACCGACTGTGCTGTTTTTTTATCAGGGATCAGCGTTCGATGCTTCCGACTAATCAGCCATATCAGCTTACGACTA
DNA 2: CCCTGATAAAAAAACAGCACAGTCGGTTTGTCAATGTGAG
B2: nanoControl dsoverhang (dsDNA)
DNA 1: GGGGGGTGTGAGAACGGGGTGTTCTGGTGTTTGCGCCGGAATCAGCGTTCGATGCTTCCGACTAATCAGCCATATCAGCTTACGACTA
DNA 2: TCCGGCGCAAACACCAGAACACCCCGTTCTCACACCCCCC

Key:
AlpZ [1] = biological target: T1, AlpZ; assay: switchSENSE; AlpZ 50 nM; kON 1.38e5 M-1 s-1, kOFF 1.05e-4 s-1 (printed rates give 0.76 nM, inconsistent with printed KD); switchSENSE: PE40 pH 7.4 (10 mM Na phosphate, 40 mM NaCl, 0.05% Tween20, 50 uM EDTA, 50 uM EGTA), 30 C; EMSA: 20 mM HEPES pH 7.6, 1 mM EDTA, 10 mM (NH4)2SO4, 1; conditions: protein: recombinant; chain copies: 2; label: fluorescent nanolever on the switchSENSE chip; 40 bp duplex with 3' overhang 48 nt on strand 1, hybridized to chip nanolever
AlpZ [2] = biological target: T1, AlpZ; assay: switchSENSE; no association observed; switchSENSE: PE40 pH 7.4 (10 mM Na phosphate, 40 mM NaCl, 0.05% Tween20, 50 uM EDTA, 50 uM EGTA), 30 C; EMSA: 20 mM HEPES pH 7.6, 1 mM EDTA, 10 mM (NH4)2SO4, 1; conditions: protein: recombinant; chain copies: 2; label: fluorescent nanolever on the switchSENSE chip; 40 bp duplex with 3' overhang 48 nt on strand 1, hybridized to chip nanolever

Row | Binder | Kd (AlpZ [1]) [nM] | binding result (AlpZ [2])
1 | B1 | 37.1 ± 3.3 | 
2 | B2 |  | no binding

Reference: article PMC7343708, “Molecular Dynamics to Elucidate the DNA-Binding Activity of AlpZ, a Member of the Gamma-Butyrolactone Receptor Family in Streptomyces ambofaciens”
